Experimental data from patent publication US20150258192A1, “COMPOSITIONS AND METHODS FOR PREVENTING OR TREATING CHRONIC LUNG ALLOGRAFT DYSFUNCTION (CLAD) AND IDIOPATHIC PULMONARY FIBROSIS (IPF)” (priority 2014, published 2015).
No end group written: not given here.

Experiments:
Assay in all cases: Kinase Profiling Assay
Type in all cases: biochemical
Conditions in all cases: peptide 100 μM
ALK(h) = ALK(h) (Homo sapiens, UniProt Q9UM73)
Summary of the method: (§1)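 In this 266-kinase specificity panel, every measurement was duplicated. Transfer of labeled phosphate from ATP to a cationic substrate was quantified after the substrate adhered to an anionic filter membrane and was scintillation-counted, then related to a full-activity control.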

Abl(Y253F)(h) = Abl(Y253F)(h) (Homo sapiens, UniProt P00519, Y253F)
Summary of the method: as §1

BTK(R28H)(h) = BTK(R28H)(h) (Homo sapiens, UniProt Q06187, R28H)
BTK(R28H)(h), sequence (Q06187 whole entry R28H): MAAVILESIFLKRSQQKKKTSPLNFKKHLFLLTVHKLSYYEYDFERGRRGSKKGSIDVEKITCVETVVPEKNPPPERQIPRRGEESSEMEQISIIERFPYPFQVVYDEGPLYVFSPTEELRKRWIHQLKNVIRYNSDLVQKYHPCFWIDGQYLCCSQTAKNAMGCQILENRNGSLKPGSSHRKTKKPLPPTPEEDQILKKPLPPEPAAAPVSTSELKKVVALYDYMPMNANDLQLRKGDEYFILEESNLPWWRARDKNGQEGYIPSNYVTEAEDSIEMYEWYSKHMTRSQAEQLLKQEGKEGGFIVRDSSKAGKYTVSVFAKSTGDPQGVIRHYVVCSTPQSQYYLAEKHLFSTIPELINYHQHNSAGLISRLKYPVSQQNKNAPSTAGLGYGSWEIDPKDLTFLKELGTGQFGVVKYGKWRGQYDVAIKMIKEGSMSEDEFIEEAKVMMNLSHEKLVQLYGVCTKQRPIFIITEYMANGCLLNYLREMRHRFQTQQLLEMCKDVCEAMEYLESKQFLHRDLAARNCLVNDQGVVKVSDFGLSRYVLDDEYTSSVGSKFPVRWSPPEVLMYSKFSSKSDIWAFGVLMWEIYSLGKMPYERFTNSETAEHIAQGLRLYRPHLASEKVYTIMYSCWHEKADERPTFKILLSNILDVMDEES
Summary of the method: as §1

CaMKIIδ(h) = CaMKIIδ(h) (Homo sapiens, UniProt Q13557)
CaMKIIδ(h), sequence (Q13557 whole entry): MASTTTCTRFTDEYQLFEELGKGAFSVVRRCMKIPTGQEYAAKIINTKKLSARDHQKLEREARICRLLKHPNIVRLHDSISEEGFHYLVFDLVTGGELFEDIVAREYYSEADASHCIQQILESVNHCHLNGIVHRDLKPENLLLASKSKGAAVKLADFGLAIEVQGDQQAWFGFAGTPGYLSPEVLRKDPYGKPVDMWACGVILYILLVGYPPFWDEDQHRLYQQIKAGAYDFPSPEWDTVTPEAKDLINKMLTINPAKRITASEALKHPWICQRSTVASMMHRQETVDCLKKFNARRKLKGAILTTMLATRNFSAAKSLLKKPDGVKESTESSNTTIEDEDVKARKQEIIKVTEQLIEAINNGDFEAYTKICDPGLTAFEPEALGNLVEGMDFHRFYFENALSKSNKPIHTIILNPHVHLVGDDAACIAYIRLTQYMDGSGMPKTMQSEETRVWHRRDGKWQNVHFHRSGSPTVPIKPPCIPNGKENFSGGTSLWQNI
Summary of the method: as §1

FGFR1(V561M)(h) = FGFR1(V561M)(h) (Homo sapiens, UniProt P11362, V561M)
FGFR1(V561M)(h), sequence (P11362 22-822 V561M): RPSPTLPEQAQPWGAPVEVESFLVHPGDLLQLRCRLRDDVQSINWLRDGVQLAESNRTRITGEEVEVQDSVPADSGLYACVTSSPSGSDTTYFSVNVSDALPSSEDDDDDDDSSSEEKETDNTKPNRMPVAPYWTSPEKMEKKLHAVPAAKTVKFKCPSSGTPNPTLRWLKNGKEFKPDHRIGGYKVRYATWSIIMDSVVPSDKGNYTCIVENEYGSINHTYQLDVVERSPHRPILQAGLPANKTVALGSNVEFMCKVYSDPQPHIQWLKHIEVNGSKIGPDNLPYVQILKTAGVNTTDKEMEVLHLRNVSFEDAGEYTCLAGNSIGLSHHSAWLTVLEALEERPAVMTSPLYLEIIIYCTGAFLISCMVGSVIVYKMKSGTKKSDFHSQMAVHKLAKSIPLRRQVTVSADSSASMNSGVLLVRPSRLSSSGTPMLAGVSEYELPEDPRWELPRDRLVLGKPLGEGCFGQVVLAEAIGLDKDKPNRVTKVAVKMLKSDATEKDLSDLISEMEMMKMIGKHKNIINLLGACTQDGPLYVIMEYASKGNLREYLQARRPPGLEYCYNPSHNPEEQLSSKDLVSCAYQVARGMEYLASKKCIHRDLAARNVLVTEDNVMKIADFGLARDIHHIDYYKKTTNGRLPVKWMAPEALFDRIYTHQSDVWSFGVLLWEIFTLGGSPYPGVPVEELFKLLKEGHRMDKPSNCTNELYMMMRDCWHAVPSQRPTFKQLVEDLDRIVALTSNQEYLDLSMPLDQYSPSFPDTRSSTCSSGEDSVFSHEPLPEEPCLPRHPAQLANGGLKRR
Summary of the method: as §1

FGFR2(h) = FGFR2(h) (Homo sapiens, UniProt P21802)
Summary of the method: as §1

IRAK1(h) = biological target: T1, IRAK1(h) (Homo sapiens, UniProt P51617)
T1 construct: purchased Millipore
Summary of the method: as §1

Lck(h) activated = biological target: T2, Lck(h) activated (Homo sapiens, UniProt P06239)
T2 construct: purchased Millipore
T2 sequence (P06239 whole entry): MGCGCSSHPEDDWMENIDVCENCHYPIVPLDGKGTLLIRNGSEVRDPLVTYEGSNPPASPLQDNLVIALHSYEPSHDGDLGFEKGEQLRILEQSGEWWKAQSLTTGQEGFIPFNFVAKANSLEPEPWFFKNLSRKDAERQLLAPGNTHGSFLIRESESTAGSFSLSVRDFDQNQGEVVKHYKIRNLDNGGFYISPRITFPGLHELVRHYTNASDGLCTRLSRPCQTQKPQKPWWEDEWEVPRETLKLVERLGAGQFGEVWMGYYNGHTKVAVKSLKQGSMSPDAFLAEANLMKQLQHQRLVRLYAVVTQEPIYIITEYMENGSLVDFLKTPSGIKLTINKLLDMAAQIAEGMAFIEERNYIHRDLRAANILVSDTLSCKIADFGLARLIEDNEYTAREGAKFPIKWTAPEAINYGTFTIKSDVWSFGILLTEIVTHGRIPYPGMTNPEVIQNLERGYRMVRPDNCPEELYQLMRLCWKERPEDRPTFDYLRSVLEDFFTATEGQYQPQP
Summary of the method: as §1

MARK1(h) = biological target: T3, MARK1(h) (Homo sapiens, UniProt Q9P0L2)
T3 construct: purchased Millipore
T3 sequence (Q9P0L2 whole entry): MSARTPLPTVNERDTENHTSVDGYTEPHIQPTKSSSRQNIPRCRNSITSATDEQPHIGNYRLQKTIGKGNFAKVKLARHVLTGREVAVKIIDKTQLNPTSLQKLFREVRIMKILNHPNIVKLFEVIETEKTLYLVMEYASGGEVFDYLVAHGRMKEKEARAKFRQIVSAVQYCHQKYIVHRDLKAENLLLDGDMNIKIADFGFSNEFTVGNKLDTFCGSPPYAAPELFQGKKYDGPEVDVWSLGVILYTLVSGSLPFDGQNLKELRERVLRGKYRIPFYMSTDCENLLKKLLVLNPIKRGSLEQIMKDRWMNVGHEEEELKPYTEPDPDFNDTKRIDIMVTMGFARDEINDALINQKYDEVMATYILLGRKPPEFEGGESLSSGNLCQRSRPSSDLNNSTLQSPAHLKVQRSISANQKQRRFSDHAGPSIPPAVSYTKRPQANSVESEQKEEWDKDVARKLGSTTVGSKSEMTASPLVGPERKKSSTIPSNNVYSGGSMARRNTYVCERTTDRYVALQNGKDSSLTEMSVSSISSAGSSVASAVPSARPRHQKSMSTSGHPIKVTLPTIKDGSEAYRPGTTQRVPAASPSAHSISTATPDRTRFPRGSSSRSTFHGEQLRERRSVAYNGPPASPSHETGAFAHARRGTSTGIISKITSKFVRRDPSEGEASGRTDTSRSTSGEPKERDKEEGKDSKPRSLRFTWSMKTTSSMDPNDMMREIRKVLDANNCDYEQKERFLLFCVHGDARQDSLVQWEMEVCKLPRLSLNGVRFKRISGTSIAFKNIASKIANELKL
Summary of the method: as §1

MKK7β(h) = biological target: T4, MKK7β(h) (Homo sapiens, UniProt O14733)
T4 construct: purchased Millipore
T4 sequence (O14733 1-419): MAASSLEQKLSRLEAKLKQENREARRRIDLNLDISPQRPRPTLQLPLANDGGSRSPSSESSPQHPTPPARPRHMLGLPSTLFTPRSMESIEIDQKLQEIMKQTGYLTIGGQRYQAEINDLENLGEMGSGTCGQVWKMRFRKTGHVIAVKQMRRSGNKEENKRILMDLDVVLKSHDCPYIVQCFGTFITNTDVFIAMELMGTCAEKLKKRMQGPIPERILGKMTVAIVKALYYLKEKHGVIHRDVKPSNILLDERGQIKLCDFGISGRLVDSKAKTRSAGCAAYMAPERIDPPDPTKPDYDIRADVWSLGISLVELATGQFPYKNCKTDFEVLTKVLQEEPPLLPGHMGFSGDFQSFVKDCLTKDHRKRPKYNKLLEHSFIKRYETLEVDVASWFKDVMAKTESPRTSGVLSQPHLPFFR
Summary of the method: as §1

NEK6(h) = biological target: T5, NEK6(h) (Homo sapiens, UniProt Q9HC98)
T5 construct: purchased Millipore
T5 sequence (Q9HC98 whole entry): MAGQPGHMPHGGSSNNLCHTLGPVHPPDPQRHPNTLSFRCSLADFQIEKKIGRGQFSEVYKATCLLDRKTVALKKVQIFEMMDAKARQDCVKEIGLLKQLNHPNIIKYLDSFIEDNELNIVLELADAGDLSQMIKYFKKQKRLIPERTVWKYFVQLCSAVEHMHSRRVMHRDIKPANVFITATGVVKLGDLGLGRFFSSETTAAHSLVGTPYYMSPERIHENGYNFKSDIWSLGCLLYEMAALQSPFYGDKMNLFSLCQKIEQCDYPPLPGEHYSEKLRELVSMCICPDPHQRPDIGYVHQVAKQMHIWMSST
Summary of the method: as §1

PRAK(h) = biological target: T6, PRAK(h) (Homo sapiens, UniProt Q8IW41)
T6 sequence (Q8IW41 1-473): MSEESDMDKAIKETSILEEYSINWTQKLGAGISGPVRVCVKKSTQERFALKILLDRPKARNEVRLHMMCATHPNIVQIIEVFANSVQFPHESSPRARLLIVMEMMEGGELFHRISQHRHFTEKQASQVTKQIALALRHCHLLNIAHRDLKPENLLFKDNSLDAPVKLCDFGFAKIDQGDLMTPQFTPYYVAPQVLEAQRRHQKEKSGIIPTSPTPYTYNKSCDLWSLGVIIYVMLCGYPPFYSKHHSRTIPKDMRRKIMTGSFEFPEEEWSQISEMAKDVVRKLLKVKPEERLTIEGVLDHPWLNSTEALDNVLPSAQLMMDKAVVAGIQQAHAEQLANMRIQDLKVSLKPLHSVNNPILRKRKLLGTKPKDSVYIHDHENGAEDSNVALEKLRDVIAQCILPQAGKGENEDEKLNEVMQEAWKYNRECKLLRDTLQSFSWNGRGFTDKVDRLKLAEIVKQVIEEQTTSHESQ
Summary of the method: as §1

Ret(V804L)(h) = Ret(V804L)(h) (Homo sapiens, UniProt P07949, V804L)
Summary of the method: as §1

SAPK2a(T106M)(h) = biological target: T7, SAPK2a(T106M)(h) (Homo sapiens, UniProt Q16539, T106M)
T7 construct: purchased Millipore
T7 sequence (Q16539 whole entry T106M): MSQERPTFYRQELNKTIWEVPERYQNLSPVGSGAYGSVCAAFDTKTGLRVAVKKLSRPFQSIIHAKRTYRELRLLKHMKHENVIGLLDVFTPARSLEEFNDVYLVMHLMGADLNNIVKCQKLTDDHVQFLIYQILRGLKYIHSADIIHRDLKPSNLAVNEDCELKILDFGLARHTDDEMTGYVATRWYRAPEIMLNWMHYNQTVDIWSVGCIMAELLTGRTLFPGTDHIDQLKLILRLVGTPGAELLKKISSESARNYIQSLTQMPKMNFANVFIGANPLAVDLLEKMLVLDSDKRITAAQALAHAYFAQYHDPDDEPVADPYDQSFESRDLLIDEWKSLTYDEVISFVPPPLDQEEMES
Summary of the method: as §1

SAPK2b(h) = biological target: T8, SAPK2b(h) (Homo sapiens, UniProt Q15759)
T8 construct: purchased Millipore
T8 sequence (Q15759 whole entry): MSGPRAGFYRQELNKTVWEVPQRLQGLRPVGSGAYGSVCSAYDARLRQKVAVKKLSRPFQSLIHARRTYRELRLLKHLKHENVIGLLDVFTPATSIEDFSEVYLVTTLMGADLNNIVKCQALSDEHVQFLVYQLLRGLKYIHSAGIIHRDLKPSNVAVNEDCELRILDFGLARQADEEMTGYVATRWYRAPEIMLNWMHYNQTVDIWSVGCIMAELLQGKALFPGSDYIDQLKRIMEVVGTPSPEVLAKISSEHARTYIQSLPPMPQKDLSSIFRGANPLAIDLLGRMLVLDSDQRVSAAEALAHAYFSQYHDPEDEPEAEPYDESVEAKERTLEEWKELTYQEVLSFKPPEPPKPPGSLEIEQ
Summary of the method: as §1

ULK3(h) = biological target: T9, ULK3(h) (Homo sapiens, UniProt Q6PHR2)
T9 sequence (Q6PHR2 1-472): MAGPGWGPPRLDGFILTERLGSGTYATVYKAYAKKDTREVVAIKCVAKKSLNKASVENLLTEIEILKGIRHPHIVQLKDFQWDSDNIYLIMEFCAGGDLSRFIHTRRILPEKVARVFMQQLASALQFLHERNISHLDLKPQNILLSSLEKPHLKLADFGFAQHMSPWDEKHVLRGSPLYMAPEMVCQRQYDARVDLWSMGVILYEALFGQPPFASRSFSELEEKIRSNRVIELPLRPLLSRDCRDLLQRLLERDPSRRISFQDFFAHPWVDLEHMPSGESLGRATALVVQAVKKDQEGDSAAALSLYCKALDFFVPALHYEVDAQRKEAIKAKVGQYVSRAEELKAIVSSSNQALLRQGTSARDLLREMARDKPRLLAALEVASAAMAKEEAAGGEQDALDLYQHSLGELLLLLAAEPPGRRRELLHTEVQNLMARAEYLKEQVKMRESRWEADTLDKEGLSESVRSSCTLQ
Summary of the method: as §1

cKit(h) = cKit(h) (Homo sapiens, UniProt P10721)
Summary of the method: as §1

p70S6K(h) = biological target: T10, p70S6K(h) (Homo sapiens, UniProt P23443)
T10 construct: purchased Millipore
T10 sequence (P23443 whole entry): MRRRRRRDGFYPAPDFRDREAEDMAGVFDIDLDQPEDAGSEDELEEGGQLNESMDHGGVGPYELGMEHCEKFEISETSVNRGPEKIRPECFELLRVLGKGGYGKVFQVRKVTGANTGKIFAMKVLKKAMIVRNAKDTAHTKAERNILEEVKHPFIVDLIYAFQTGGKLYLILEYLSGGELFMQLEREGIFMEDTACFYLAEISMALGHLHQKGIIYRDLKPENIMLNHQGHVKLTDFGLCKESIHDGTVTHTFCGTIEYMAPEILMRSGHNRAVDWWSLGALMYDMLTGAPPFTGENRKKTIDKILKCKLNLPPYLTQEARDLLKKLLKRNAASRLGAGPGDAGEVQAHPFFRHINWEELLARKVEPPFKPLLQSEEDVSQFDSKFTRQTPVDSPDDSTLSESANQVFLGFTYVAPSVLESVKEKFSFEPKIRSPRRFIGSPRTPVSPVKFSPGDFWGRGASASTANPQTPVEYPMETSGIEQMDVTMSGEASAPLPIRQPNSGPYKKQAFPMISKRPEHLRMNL
Summary of the method: as §1

Met(Y1248H)(h) = biological target: T11, Met(Y1248H)(h) (Homo sapiens, UniProt P08581, Y1230H)
T11 construct: purchased Millipore
Summary of the method: as §1

Row | Sequence | % activity (ALK(h)) [%] | % activity (Abl(Y253F)(h)) [%] | % activity (BTK(R28H)(h)) [%] | % activity (CaMKIIδ(h)) [%] | % activity (FGFR1(V561M)(h)) [%] | % activity (FGFR2(h)) [%] | % activity (IRAK1(h)) [%] | % activity (Lck(h) activated) [%] | % activity (MARK1(h)) [%] | % activity (MKK7β(h)) [%] | % activity (NEK6(h)) [%] | % activity (PRAK(h)) [%] | % activity (Ret(V804L)(h)) [%] | % activity (SAPK2a(T106M)(h)) [%] | % activity (SAPK2b(h)) [%] | % activity (ULK3(h)) [%] | % activity (cKit(h)) [%] | % activity (p70S6K(h)) [%] | % activity (Met(Y1248H)(h)) [%]
1 | FAKLAARLYRKALARQLGVAA [MMI-0300] | 19 | 86 | 74 | 1 | 74 | 14 | 95 | 243 | 132 | 100 | 82 | 128 | 79 | 97 | 81 | 167 | 53 | 35 | 
2 | HRRIKAWLKKIKALARQLGVAA (Mammal) [MMI-0500] | 12 | 29 | 10 | 1 |  | 12 | 5 | 76 | 110 |  | 49 | 95 | 20 | 32 | 42 | 177 | 45 | 3 | 126
3 | KAFAKLAARLYRKALARQLGVAA [MMI-0400] | 16 | 78 | 24 | 2 | 74 | 18 | 93 | 216 | 120 | 94 | 85 | 118 | 73 | 99 | 82 | 147 | 43 | 33 | 63
4 | YARAAARQARAKALARQLGVAA [MMI-0100] | 118 |  | 91 |  | 108 |  |  |  |  | 137 |  | 159 |  | 101 |  | 142 | 95 | 89 | 88
5 | YARAAARQARAKALNRQLGVA (Mammal) [MMI-0200] | 95 |  |  | 2 | 72 | 73 | 101 | 90 |  |  | 98 |  | 100 | 100 | 95 | 164 | 110 | 84 | 153
